Assay results from paper PMC6126693.

Test system: ZIC2 zinc finger domains (five ZnF)
Test: ITC
Settings: ITC: 300 mM NaCl, 50 mM potassium phosphate, pH 8.0, 25 C, EMSA: binding buffer not specified, 30 min 37 C, 6% PAGE 1x TBE 4 C

Row | Substance | Ka (RNA 60 uM into protein 5 uM) [M⁻¹] | Ka [M⁻¹]
1 | antisense PCAT92 RNA | 1e+06 | –
2 | sense PCAT92 RNA (predicted ZIC2-binding region) | – | 1e+09
